Test results from paper PMC9543391, “ERp57 chaperon protein protects neuronal cells from Aβ‐induced toxicity” (Journal of Neurochemistry, 2022).
Peptide text beside a SMILES is read from it.

Key:
[1] = test system: tau; parameters: method as in Xu et al., [2013]; conditions: within the cell; ref Xu et al., [2013]; cited from earlier work
[2] = target: ERp57 (human recombinant PDIA3) (human) (UniProt P30101); assay: SPR; ERp57 immobilised by amine coupling on a COOH5 sensorchip (about 4000 RU), SensiQ Pioneer; non-aggregated Aβ25-35 injected for 240 s at 30 μl/min at 15.6 μM to 1.0 mM; 25°C; HBSP buffer (20 mM HEPES pH 7.4, 150 mM NaCl, 0.005% Tween-20); global kinetic fits with one or two binding sites (Qdat 4.0)
[3] = target: T1, ERp57 (Homo sapiens, UniProt P30101); assay: Surface plasmon resonance, Aβ25−35 binding to immobilized ERp57; conditions: SPR, ERp57 on COOH5 sensorchip; global fitting with one binding site; non-aggregated Aβ25−35 15.6 μM–1.0 mM; HBSP buffer pH 7.4; 25°C; read-out: overall K D
T1 construct: made in house; host or cells: E. coli BL21, vector pET21
T1 sequence (P30101 25-505): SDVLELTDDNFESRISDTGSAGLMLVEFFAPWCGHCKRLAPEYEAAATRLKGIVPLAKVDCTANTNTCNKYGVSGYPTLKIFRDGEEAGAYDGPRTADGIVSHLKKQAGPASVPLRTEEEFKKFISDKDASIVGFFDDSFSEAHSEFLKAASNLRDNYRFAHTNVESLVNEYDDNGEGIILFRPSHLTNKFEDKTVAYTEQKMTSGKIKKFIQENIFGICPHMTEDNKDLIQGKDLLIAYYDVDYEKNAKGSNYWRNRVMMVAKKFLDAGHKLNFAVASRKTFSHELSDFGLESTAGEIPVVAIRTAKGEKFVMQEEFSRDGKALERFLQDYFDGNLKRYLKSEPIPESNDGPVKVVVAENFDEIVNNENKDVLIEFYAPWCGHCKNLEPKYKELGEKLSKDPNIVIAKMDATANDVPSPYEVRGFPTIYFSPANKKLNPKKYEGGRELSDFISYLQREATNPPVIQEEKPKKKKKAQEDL
From the text: Human recombinant PDIA3 was cloned and expressed in E. coli strain BL21 (Invitrogen™, catalog number C600003) using the expression vector pET21 (Novagen, catalog number 69770) as described by Coppari (Coppari et al., [2002]). The coding sequence for the second redox‐active domain (aʹ domain, residues 377–505) was amplified by PCR as previously described and cloned in the expression vector pET29 (Novagen) (Grillo et al., [2002]). Recombinant proteins were expressed in E. coli strain BL21 and purified by ammonium sulfate fractionation, ion exchange, and heparin chromatography (Grillo et al., [2006]). Protein purification was evaluated by SDS‐PAGE and concentration was determined spectrophotometrically (PDIA3 Ɛ280 reduced form = 44 810 M^−1 cm^−1, aʹ domain Ɛ280 reduced form = 14 400 M^−1 cm^−1). Rabbit anti‐ERp57 primary antibody will be shared upon reasonable request.
SPR experiments were performed with a SensiQ Pioneer apparatus. […] The amount of immobilized ERp57 was detected by mass concentration‐dependent changes in the refractive index on the sensorchip surface and corresponded to about 4000 resonance units (RU). […] Values of the plateau signal at steady‐state (Req) and full fittings with 1, 2, and 3 sites were calculated from kinetic evaluation of the sensorgrams using the Qdat 4.0 program.

[4] = test system: SH‐SY5Y cells; assay: MTT cell viability assay; type: cell-based, human; conditions: Aβ25−35 aggregated with ERp57
Description: For the cell viability experiments, 96‐well plates were seeded with 10 000 cells/well. After 24 h, cells were treated with 30 μM Aβ25−35 aggregated for 72 h in the presence or in the absence of 0.12 μM of ERp57 or GST recombinant proteins (in a 1:250 ratio), in a final volume of 150 μl per well. Plates were incubated for 24 h in an incubator at 37°C, 5% of CO2, and 99% RH. Thereafter, 20 μl of (3‐[4,5‐Dimethylthiazol‐2‐yl]‐2,5‐Diphenyltetrazolium Bromide) (MTT) dye (stock solution 5 mg/ml in PBS) (catalog number #M2003) was added to the wells and incubated for additional 2 h at 37°C and 5% CO2. Water‐insoluble formazan crystals were dissolved in 100 μl of DMSO (catalog number #472301). For spectrophotometric measurements, Appliscan® plate reader (Thermo scientific) was used at the wavelength 570 nm, with reference set at 690 nm.

[5] = test system: AD 5XFAD mice model; conditions: activation of ERp57, cerebral cortex and hippocampus, ref Tohda et al., [2012]; cited from earlier work
From the text: ERp57 has been previously linked to key processes in neurodegeneration and particularly in AD pathogenesis.

PDI: protein disulfide isomerase
effect on tau fibril formation [1]: able to reduce the formation of tau fibrils

Amyloid beta peptide fragment 25-35 (Aβ25-35)
KD1 (fit with two binding sites, high-affinity site) [2]: 34 µM
KD2 (fit with two binding sites, low-affinity site) [2]: 3.3 mM

CC[C@H](C)[C@H](NC(=O)[C@H](C)NC(=O)CNC(=O)[C@H](CCCCN)NC(=O)[C@H](CC(N)=O)NC(=O)[C@H](CO)NC(=O)CN)C(=O)N[C@H](C(=O)NCC(=O)N[C@@H](CC(C)C)C(=O)N[C@@H](CCSC)C(=O)O)[C@@H](C)CC [Aβ25−35] (H-GSNKGAIIGLM-OH)
Kd [3]: 33 ± 2 µM
toxicity of Aβ25−35 bound by ERp57 [4]: no longer leads to toxicity

C[C@@H]1CC[C@@]2(OC1)O[C@H]1C[C@H]3[C@@H]4CC=C5C[C@@H](O)CC[C@]5(C)[C@H]4CC[C@]3(C)[C@H]1[C@@H]2C [diosgenin]
object recognition memory; amyloid plaques and neurofibrillary tangles [5]: significantly improves performance of object recognition memory and reduces amyloid plaques and neurofibrillary tangles
